# Reference: US20230295277A1
# Legend:
# Assay in all cases: cell-based or functional assay
# [1] = target: full-length subtype B consensus gp160 expressed on HEK293 cells (vector pConBgp160-opt) (HIV-1 subtype B (consensus))
# [2] = target: subtype C consensus gp160 protein expressed on HEK293 cells (vector pConCgp160-opt) (HIV-1 subtype C (consensus))
# [3] = target: CD19 on REH cells (human) (UniProt P15391)
# Sequence of UniProt P15391 (P15391 20-556): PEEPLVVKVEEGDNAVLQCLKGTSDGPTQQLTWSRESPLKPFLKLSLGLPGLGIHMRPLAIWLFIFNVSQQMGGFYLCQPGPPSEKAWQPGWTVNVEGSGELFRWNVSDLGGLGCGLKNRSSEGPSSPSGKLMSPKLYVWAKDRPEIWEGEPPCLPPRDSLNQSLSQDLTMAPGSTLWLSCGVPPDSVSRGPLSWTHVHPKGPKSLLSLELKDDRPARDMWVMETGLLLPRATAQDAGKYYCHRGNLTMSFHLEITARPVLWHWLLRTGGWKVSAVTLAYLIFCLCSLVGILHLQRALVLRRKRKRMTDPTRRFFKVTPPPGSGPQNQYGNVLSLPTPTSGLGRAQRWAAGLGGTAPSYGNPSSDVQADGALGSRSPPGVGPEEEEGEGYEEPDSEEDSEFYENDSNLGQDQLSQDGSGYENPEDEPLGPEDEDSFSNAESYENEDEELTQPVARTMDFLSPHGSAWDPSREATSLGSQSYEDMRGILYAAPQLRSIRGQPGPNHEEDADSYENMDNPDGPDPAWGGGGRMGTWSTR
substance,measurement,setting,value
2G12-based anti-gp160 CAR (pFUW-2G12-CD28-CD3ζ) on NK-92MI cells (from UniProt P01732 138-182; P10747 153-220; P20963 52-164),"percentage of gp160+ cells killed by 2G12 CAR-NK cells, E:T 25:1",[1],60%
DNP-conjugated 3BNC117 (antibody),"IFN-γ production by anti-DNP CAR-NK cells (ELISA), adaptor 2 nM, against the isotype control",[1],2 fold
same,"percentage of gp160+ cells killed by anti-DNP CAR-NK cells, flow cytometry, 8 h, E:T 25:1, adaptor 2 nM",[1],50%
same,percentage of gp160+ cells killed by universal CAR-NK cells,[1],45.5%
same,percentage of gp160+ cells killed by universal CAR-NK cells,[2],19.7%
same,"percentage of subtype C gp160+ cells lysed by anti-DNP CAR-NK cells, 8 h, E:T 25:1, adaptor 2 nM",[2],20%
DNP-conjugated 10-1074 (antibody),"percentage of gp160+ cells killed by anti-DNP CAR-NK cells, flow cytometry, 8 h, E:T 25:1, adaptor 2 nM",[1],50%
same,"percentage of gp160+ cells killed by anti-DNP CAR-T cells, E/T 1:1, 48 h, adaptor 10 nM",[1],29%
same,percentage of gp160+ cells killed by universal CAR-NK cells,[1],53.1%
same,percentage of gp160+ cells killed by universal CAR-NK cells,[2],29.8%
same,"percentage of subtype C gp160+ cells killed by anti-DNP CAR-NK cells, 8 h, E:T 25:1, adaptor 2 nM",[2],30%
DNP-conjugated PG9 (antibody),"percentage of gp160+ cells killed by anti-DNP CAR-NK cells, flow cytometry, 8 h, E:T 25:1, adaptor 2 nM",[1],50%
same,"percentage of subtype C gp160+ cells killed by anti-DNP CAR-NK cells, 8 h, E:T 25:1, adaptor 2 nM",[2],30%
DNP-conjugated VRC01 (antibody),"percentage of gp160+ cells killed by anti-DNP CAR-NK cells, flow cytometry, 8 h, E:T 25:1, adaptor 2 nM",[1],28.5%
same,"percentage of subtype C gp160+ cells lysed by anti-DNP CAR-NK cells, 8 h, E:T 25:1, adaptor 2 nM",[2],20%
DNP-conjugated anti-CD19 antibody (clone FMC63),"percentage of REH cells killed by anti-DNP CAR-NK cells, flow cytometry, E:T 25:1, overnight, adaptor 50 nM",[3],59%
same,"percentage of REH cells remaining alive, flow cytometry, E:T 25:1, overnight, adaptor 50 nM",[3],41%
DNP-conjugated antibody 2G12,adaptor concentration at which IFN-γ production of CAR-NK cells reached a plateau,[1],> 2 nM
same,"percentage of gp160+ cells killed by anti-DNP CAR-NK cells, flow cytometry, 8 h, E:T 25:1, adaptor 2 nM",[1],50%
same,"percentage of gp160+ cells killed by anti-DNP CAR-T cells, E/T 1:1, 48 h, adaptor 10 nM",[1],34%
same,"percentage of gp160+ cells killed by universal (anti-DNP) CAR-NK cells with DNP-conjugated 2G12, E:T 25:1",[1],50%
